# Data reported in patent US20230390362A1, “USE OF TRIGONAL AGONIST HAVING ACTIVITIES TO ALL OF GLUCAGON, GLP-1, AND GIP RECEPTORS IN TREATMENT OF SEQUELAE FOLLOWING RESPIRATORY INFECTIOUS DISEASES” (HANMI PHARM. CO., LTD., priority 2020, published 2023).
# Positions of bridges follow the written chain, without caps; N, C: chain ends. Non-standard residues stand in square brackets, D forms with d. No end group written: not given here. *: point of attachment. Acetyl(2-(4-imidazolyl)) = O=C(Cc1c[nH]cn1)*; Aib = CC(C)(N)C(=O)O
# Target: human GLP-1 receptor (human, UniProt P43220 24-463)
# Experiment: cell-based or functional assay
row,Binder,"In vitro activity relative to native peptide (%), vs. GLP-1 (cAMP EC50)"
1,Y[Aib]QGTFTSDYSKCLDEKRAKDFVQWLLDHHPSSGQPPPS (bridge 16-20) [trigonal agonist of SEQ ID NO: 70],15.1%
2,{Acetyl(2-(4-imidazolyl))}-[Aib]QGTFTSDYSKCLDEKRAKEFVQWLLDHHPSSGQPPPS (bridge 15-19) [trigonal agonist of SEQ ID NO: 74],12.9%
3,{Acetyl(2-(4-imidazolyl))}-[Aib]QGTFTSDCSKYLDERAAQDFVQWLLDGGPSSGAPPPS [trigonal agonist of SEQ ID NO: 63],15.3%
4,H[Aib]QGTFTSDVSKYLDGQAAQEFVAWLLKGC [trigonal agonist of SEQ ID NO: 8],14.2%
5,H[Aib]QGTFTSDVSSYLDGQAAKEFVAWLLKGC [trigonal agonist of SEQ ID NO: 6],17%
6,Y[Aib]QGTFTSDYSKYLDEKRAKDFVQWLLDHHPSSGQPPPSC (bridge 16-20) [trigonal agonist of SEQ ID NO: 76],10.3%
7,{Acetyl(2-(4-imidazolyl))}-[Aib]QGTFTSDYSIAMDEKHCKDFVNWLLNTK (bridge 15-19) [trigonal agonist of SEQ ID NO: 60],106%
8,Y[Aib]QGTFTSDYSKCLDERAAKEFVQWLLDHHPSSGQPPPS (bridge 16-20) [trigonal agonist of SEQ ID NO: 69],24.3%
9,Y[Aib]QGTFTSDYSKCLDEKAAKEFVQWLLDHHPSSGQPPPS (bridge 16-20) [trigonal agonist of SEQ ID NO: 68],27.9%
10,H[Aib]EGTFTSDYSIAMDEIHQKDFVNWLLAQKC (bridge 16-20) [trigonal agonist of SEQ ID NO: 79],41.5%
11,H[Aib]QGTFTSDYSIAMDEIHQKDFVNWLLAQC (bridge 16-20) [trigonal agonist of SEQ ID NO: 55],27.1%
12,H[Aib]QGTFTSDYSKYLDEKRQKEFVQWLLNTKC (bridge 16-20) [trigonal agonist of SEQ ID NO: 58],39.1%
13,Y[Aib]QGTFTSDYSKYLDEKAAKDFVQWLLDHHPSSGQPPPSC (bridge 16-20) [trigonal agonist of SEQ ID NO: 77],38.7%
14,H[Aib]EGTFTSDYSIAMDEIHQKDFVDWLLAEC (bridge 16-20) [trigonal agonist of SEQ ID NO: 54],30.6%

# Target: human GCG receptor (human, UniProt P47871 26-477)
# Experiment: cell-based or functional assay
# Chain of human GCG receptor (P47871 26-477): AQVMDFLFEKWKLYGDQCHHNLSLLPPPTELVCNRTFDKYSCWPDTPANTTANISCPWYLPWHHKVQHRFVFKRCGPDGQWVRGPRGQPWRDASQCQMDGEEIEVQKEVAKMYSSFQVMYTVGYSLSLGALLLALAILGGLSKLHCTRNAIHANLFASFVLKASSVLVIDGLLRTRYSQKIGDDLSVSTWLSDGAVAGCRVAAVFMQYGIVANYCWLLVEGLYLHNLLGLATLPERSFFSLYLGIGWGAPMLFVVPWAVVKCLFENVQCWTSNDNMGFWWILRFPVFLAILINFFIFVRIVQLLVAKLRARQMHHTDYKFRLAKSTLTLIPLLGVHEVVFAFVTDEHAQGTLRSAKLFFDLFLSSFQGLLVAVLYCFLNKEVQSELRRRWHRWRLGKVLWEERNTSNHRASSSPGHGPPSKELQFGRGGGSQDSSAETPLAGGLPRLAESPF
row,Binder,"In vitro activity relative to native peptide (%), vs. Glucagon (cAMP EC50)"
1,Y[Aib]QGTFTSDYSKCLDEKRAKDFVQWLLDHHPSSGQPPPS (bridge 16-20) [trigonal agonist of SEQ ID NO: 70],71.3%
2,{Acetyl(2-(4-imidazolyl))}-[Aib]QGTFTSDYSKCLDEKRAKEFVQWLLDHHPSSGQPPPS (bridge 15-19) [trigonal agonist of SEQ ID NO: 74],0.9%
3,{Acetyl(2-(4-imidazolyl))}-[Aib]QGTFTSDCSKYLDERAAQDFVQWLLDGGPSSGAPPPS [trigonal agonist of SEQ ID NO: 63],< 0.1%
4,H[Aib]QGTFTSDVSKYLDGQAAQEFVAWLLKGC [trigonal agonist of SEQ ID NO: 8],0.1%
5,H[Aib]QGTFTSDVSSYLDGQAAKEFVAWLLKGC [trigonal agonist of SEQ ID NO: 6],< 0.1%
6,Y[Aib]QGTFTSDYSKYLDEKRAKDFVQWLLDHHPSSGQPPPSC (bridge 16-20) [trigonal agonist of SEQ ID NO: 76],47.6%
7,{Acetyl(2-(4-imidazolyl))}-[Aib]QGTFTSDYSIAMDEKHCKDFVNWLLNTK (bridge 15-19) [trigonal agonist of SEQ ID NO: 60],< 0.1%
8,Y[Aib]QGTFTSDYSKCLDERAAKEFVQWLLDHHPSSGQPPPS (bridge 16-20) [trigonal agonist of SEQ ID NO: 69],9.6%
9,Y[Aib]QGTFTSDYSKCLDEKAAKEFVQWLLDHHPSSGQPPPS (bridge 16-20) [trigonal agonist of SEQ ID NO: 68],8.8%
10,H[Aib]EGTFTSDYSIAMDEIHQKDFVNWLLAQKC (bridge 16-20) [trigonal agonist of SEQ ID NO: 79],4.9%
11,H[Aib]QGTFTSDYSIAMDEIHQKDFVNWLLAQC (bridge 16-20) [trigonal agonist of SEQ ID NO: 55],0.7%
12,H[Aib]QGTFTSDYSKYLDEKRQKEFVQWLLNTKC (bridge 16-20) [trigonal agonist of SEQ ID NO: 58],2.6%
13,Y[Aib]QGTFTSDYSKYLDEKAAKDFVQWLLDHHPSSGQPPPSC (bridge 16-20) [trigonal agonist of SEQ ID NO: 77],12.2%
14,H[Aib]EGTFTSDYSIAMDEIHQKDFVDWLLAEC (bridge 16-20) [trigonal agonist of SEQ ID NO: 54],1.4%

# Target: T1, human GIP receptor (human, UniProt P48546 22-466)
# T1 sequence (looked up): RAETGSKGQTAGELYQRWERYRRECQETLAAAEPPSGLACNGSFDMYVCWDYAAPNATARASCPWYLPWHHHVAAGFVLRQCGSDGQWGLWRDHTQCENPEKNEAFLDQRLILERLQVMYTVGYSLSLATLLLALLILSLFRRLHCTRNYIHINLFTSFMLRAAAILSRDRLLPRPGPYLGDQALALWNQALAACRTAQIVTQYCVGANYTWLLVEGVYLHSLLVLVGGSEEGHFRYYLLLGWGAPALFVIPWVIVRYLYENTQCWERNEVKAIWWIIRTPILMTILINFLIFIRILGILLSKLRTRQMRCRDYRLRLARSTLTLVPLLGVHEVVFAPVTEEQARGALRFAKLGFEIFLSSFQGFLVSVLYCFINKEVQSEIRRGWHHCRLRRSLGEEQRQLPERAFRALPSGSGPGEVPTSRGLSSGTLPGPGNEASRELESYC
# Experiment: cell-based or functional assay
row,Binder,"In vitro activity relative to native peptide (%), vs. GIP (cAMP EC50)"
1,Y[Aib]QGTFTSDYSKCLDEKRAKDFVQWLLDHHPSSGQPPPS (bridge 16-20) [trigonal agonist of SEQ ID NO: 70],64.4%
2,{Acetyl(2-(4-imidazolyl))}-[Aib]QGTFTSDYSKCLDEKRAKEFVQWLLDHHPSSGQPPPS (bridge 15-19) [trigonal agonist of SEQ ID NO: 74],1%
3,{Acetyl(2-(4-imidazolyl))}-[Aib]QGTFTSDCSKYLDERAAQDFVQWLLDGGPSSGAPPPS [trigonal agonist of SEQ ID NO: 63],< 0.1%
4,H[Aib]QGTFTSDVSKYLDGQAAQEFVAWLLKGC [trigonal agonist of SEQ ID NO: 8],< 0.1%
5,H[Aib]QGTFTSDVSSYLDGQAAKEFVAWLLKGC [trigonal agonist of SEQ ID NO: 6],< 0.1%
6,Y[Aib]QGTFTSDYSKYLDEKRAKDFVQWLLDHHPSSGQPPPSC (bridge 16-20) [trigonal agonist of SEQ ID NO: 76],11.7%
7,{Acetyl(2-(4-imidazolyl))}-[Aib]QGTFTSDYSIAMDEKHCKDFVNWLLNTK (bridge 15-19) [trigonal agonist of SEQ ID NO: 60],8.2%
8,Y[Aib]QGTFTSDYSKCLDERAAKEFVQWLLDHHPSSGQPPPS (bridge 16-20) [trigonal agonist of SEQ ID NO: 69],62.8%
9,Y[Aib]QGTFTSDYSKCLDEKAAKEFVQWLLDHHPSSGQPPPS (bridge 16-20) [trigonal agonist of SEQ ID NO: 68],107%
10,H[Aib]EGTFTSDYSIAMDEIHQKDFVNWLLAQKC (bridge 16-20) [trigonal agonist of SEQ ID NO: 79],1.4%
11,H[Aib]QGTFTSDYSIAMDEIHQKDFVNWLLAQC (bridge 16-20) [trigonal agonist of SEQ ID NO: 55],2.4%
12,H[Aib]QGTFTSDYSKYLDEKRQKEFVQWLLNTKC (bridge 16-20) [trigonal agonist of SEQ ID NO: 58],0.2%
13,Y[Aib]QGTFTSDYSKYLDEKAAKDFVQWLLDHHPSSGQPPPSC (bridge 16-20) [trigonal agonist of SEQ ID NO: 77],35.5%
14,H[Aib]EGTFTSDYSIAMDEIHQKDFVDWLLAEC (bridge 16-20) [trigonal agonist of SEQ ID NO: 54],0.1%
